Source: US20240270821A1, “GIP/GLP1/GCG TRI-RECEPTOR AGONISTS AND USES THEREOF” (priority 2023, published 2024)
Where a chain is given by its changes, count along the chain named.

T1: human GIP receptor (human) (UniProt P48546)
T1 sequence (looked up): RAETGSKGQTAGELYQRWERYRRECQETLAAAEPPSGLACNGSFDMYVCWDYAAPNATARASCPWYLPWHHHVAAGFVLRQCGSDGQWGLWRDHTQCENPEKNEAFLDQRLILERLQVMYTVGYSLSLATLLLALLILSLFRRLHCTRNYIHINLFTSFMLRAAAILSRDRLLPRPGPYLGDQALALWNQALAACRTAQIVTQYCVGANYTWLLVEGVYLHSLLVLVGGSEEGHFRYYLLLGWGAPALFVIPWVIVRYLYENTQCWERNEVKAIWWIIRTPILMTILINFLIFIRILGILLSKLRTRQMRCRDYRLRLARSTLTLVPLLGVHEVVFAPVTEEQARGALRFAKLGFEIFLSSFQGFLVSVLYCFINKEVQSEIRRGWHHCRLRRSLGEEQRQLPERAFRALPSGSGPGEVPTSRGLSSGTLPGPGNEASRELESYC

B1: Example 154 (peptide)
chain: YXQGTFTSDXSXXLDKKAQXAFIEYLLAGGPSSGEPPPSGS
modifications: Aib, 4Pal, Orn, αMeL; lipidated Lys; C-terminal amide; synthetic construct; SITE 2: note = 2-Aminoisobutyric Acid; SITE 10: note = 3-(4-Pyridyl)-L-alanine; SITE 12: note = L-ornithine; SITE 13: note = alpha-methyl-leucine; SITE 17: note = Lysine is chemically modified through conjugation of the epsilon-amino group of the Lysine side chain with (2-[2-(2-
B2: Example 164 (peptide)
chain: B1 chain with X10F, A28E, P31H, S39G
modifications: non-natural residues; lipidated Lys AEEA-γGlu-C18 diacid; C-term amide; synthetic construct; SITE 2: note = 2-Aminoisobutyric Acid; SITE 12: note = L-ornithine; SITE 13: note = alpha-methyl-leucine; SITE 17: note = Lysine is chemically modified through conjugation of the epsilon-amino group of the Lysine side chain with (2-[2-(2-Amino-ethoxy)-ethoxy]-acetyl)-(gamma-Glu)
B3: Example 136 (peptide)
chain: YXQGTFTSDFSXXLDKKAQXAFIEWLLEGGPSSGAXPPSGE
modifications: synthetic construct; SITE 2: note = 2-Aminoisobutyric Acid; SITE 12: note = L-ornithine; SITE 13: note = alpha-methyl-leucine; SITE 17: note = Lysine is chemically modified through conjugation of the epsilon-amino group of the Lysine side chain with (2-[2-(2-Amino-ethoxy)-ethoxy]-acetyl)-(gamma-Glu)
B4: Example 155 (peptide)
chain: B1 chain with X10F, A28E, G29A
modifications: non-natural residues; lysine acylated with AEEA linker C18 diacid; C-amide; synthetic construct; SITE 2: note = 2-Aminoisobutyric Acid; SITE 12: note = L-ornithine; SITE 13: note = alpha-methyl-leucine; SITE 17: note = Lysine is chemically modified through conjugation of the epsilon-amino group of the Lysine side chain with (2-[2-(2-Amino-ethoxy)-ethoxy]-acetyl)2-(gamma-Glu)
B5: Example 167 (peptide)
chain: B1 chain with X10F, A28E, G29X, S41T
modifications: non-natural residues (Aib, Orn, αMeL); lipidated K; C-terminal amide; synthetic construct; SITE 2: note = 2-Aminoisobutyric Acid; SITE 12: note = L-ornithine; SITE 13: note = alpha-methyl-leucine; SITE 17: note = Lysine is chemically modified through conjugation of the epsilon-amino group of the Lysine side chain with (2-[2-(2-Amino-ethoxy)-ethoxy]-acetyl)2-(gamma-Glu)
B6: Example 137 (peptide)
chain: B3 chain with X36P, P37X
modifications: synthetic construct; SITE 2: note = 2-Aminoisobutyric Acid; SITE 12: note = L-ornithine; SITE 13: note = alpha-methyl-leucine; SITE 17: note = Lysine is chemically modified through conjugation of the epsilon-amino group of the Lysine side chain with (2-[2-(2-Amino-ethoxy)-ethoxy]-acetyl)-(gamma-Glu)
B7: Example 168 (peptide)
chain: B3 chain with X36P, E41S
modifications: Aib, Orn, αMeL; acylated K; C-terminal amide; synthetic construct; SITE 2: note = 2-Aminoisobutyric Acid; SITE 12: note = L-ornithine; SITE 13: note = alpha-methyl-leucine; SITE 17: note = Lysine is chemically modified through conjugation of the epsilon-amino group of the Lysine side chain with (2-[2-(2-Amino-ethoxy)-ethoxy]-acetyl)-(gamma-Glu)
B8: Example 165 (peptide)
chain: B3 chain with W25Y, G29X, X36P, E41T
modifications: non-natural residues, acylated Lys, C-terminal amide; synthetic construct; SITE 2: note = 2-Aminoisobutyric Acid; SITE 12: note = L-ornithine; SITE 13: note = alpha-methyl-leucine; SITE 17: note = Lysine is chemically modified through conjugation of the epsilon-amino group of the Lysine side chain with (2-[2-(2-Amino-ethoxy)-ethoxy]-acetyl)2-(gamma-Glu)

These binders were tested against hGLP-1R (Homo sapiens, UniProt P43220) (assay: cell-based or functional assay).
hGLP-1R, sequence (P43220 24-463): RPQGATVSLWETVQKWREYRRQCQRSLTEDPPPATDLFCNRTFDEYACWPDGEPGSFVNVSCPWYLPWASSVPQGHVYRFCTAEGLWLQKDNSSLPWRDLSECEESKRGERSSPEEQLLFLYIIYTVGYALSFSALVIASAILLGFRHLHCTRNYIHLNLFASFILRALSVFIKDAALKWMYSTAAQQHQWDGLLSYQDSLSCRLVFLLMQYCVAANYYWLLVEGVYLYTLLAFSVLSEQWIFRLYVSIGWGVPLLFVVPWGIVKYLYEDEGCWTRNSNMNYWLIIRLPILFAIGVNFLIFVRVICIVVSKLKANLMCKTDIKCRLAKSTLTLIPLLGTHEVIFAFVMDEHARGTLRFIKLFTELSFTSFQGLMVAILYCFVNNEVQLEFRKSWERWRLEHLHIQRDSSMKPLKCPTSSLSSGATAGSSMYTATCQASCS
For B1, the Relative cAMP EC50, nM (0.1% casein) was 4.94 nM and the cAMP Rel EC50, nM (1% HSA) was 569 nM.
For B2, the Relative cAMP EC50, nM (0.1% casein) was 5.02 nM and the cAMP Rel EC50, nM (1% HSA) was 962 nM.
B3 was tested, and the Relative cAMP EC50 was 3.8 nM and the cAMP Rel EC50, nM (in the presence of 1% HSA) was 625 nM.
Binder B4 has a Relative cAMP EC50, nM (0.1% casein) of 2.98 nM and a cAMP Rel EC50, nM (1% HSA) of 503 nM.
With B5 the Relative cAMP EC50, nM (0.1% casein) was 6.19 nM and the cAMP Rel EC50, nM (1% HSA) was 1300 nM.
For B6, the Relative cAMP EC50 was 3.18 nM and the cAMP Rel EC50, nM (in the presence of 1% HSA) was 447 nM.
B7 showed a Relative cAMP EC50, nM (0.1% casein) of 2.44 nM and a cAMP Rel EC50, nM (1% HSA) of 281 nM.
Binder B8 has a Relative cAMP EC50, nM (0.1% casein) of 6.52 nM and a cAMP Rel EC50, nM (1% HSA) of 808 nM.

What follows are binders tested against human GLP-1R (SNAP-GLP-1R expressed in HEK293 cells) (human) (UniProt P43220) (assay: cell-based or functional assay).
human GLP-1R (SNAP-GLP-1R expressed in HEK293 cells) (human), sequence (P43220 24-463): as above
In the case of B1, the GLP1R Internalization EC50 is reported as 47.7 nM and the Internalization % TOP is reported as 65.9%.
Work on B2 yielded a GLP1R Internalization EC50 of 45.9 nM and an Internalization % TOP of 46.5%.
B3 was tested, and the GLP1R Internalization EC50 was 36.1 nM and the Internalization % TOP was 37.8%.
For B4, the GLP1R Internalization EC50 was 85.1 nM and the Internalization % TOP was 54.5%.
For B5, the GLP1R Internalization EC50 was 75.9 nM and the Internalization % TOP was 44.7%.
Binder B6 has a GLP1R Internalization EC50 of 60.2 nM and an Internalization % TOP of 47.7%.
B7 showed a GLP1R Internalization EC50 of 74.8 nM and an Internalization % TOP of 38.7%.
B8 gave a GLP1R Internalization EC50 of 57.5 nM and an Internalization % TOP of 44.5%.

These binders were tested against human glucagon receptor (human) (UniProt P47871) (assay: cell-based or functional assay).
human glucagon receptor (human), sequence (P47871 26-477): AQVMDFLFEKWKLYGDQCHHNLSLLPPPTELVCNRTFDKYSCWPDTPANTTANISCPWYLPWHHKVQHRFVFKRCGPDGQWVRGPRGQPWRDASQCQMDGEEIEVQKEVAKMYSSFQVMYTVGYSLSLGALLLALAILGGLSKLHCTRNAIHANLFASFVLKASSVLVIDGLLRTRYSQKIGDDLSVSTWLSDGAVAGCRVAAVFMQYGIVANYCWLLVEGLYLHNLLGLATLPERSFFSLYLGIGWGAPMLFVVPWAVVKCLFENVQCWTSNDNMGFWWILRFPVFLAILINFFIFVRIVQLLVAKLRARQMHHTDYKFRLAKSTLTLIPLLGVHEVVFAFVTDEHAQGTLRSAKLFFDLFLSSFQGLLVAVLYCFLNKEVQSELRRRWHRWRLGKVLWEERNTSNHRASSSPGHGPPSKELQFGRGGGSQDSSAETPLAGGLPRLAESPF
With B1 the Relative cAMP EC50, nM (0.1% casein) was 8.72 nM and the cAMP Rel EC50, nM (1% HSA) was 1040 nM.
For B2, the Relative cAMP EC50, nM (0.1% casein) was 2.92 nM and the cAMP Rel EC50, nM (1% HSA) was 411 nM.
With B3 the Relative cAMP EC50 was 8.73 nM and the cAMP Rel EC50, nM (in the presence of 1% HSA) was 960 nM.
B4 was tested, and the Relative cAMP EC50, nM (0.1% casein) was 5.68 nM and the cAMP Rel EC50, nM (1% HSA) was 1310 nM.
B5 was tested, and the Relative cAMP EC50, nM (0.1% casein) was 5.05 nM and the cAMP Rel EC50, nM (1% HSA) was 938 nM.
B6 gave a Relative cAMP EC50 of 4.43 nM and a cAMP Rel EC50, nM (in the presence of 1% HSA) of 905 nM.
With B7 the Relative cAMP EC50, nM (0.1% casein) was 5.54 nM and the cAMP Rel EC50, nM (1% HSA) was 1270 nM.
Work on B8 yielded a Relative cAMP EC50, nM (0.1% casein) of 4.47 nM and a cAMP Rel EC50, nM (1% HSA) of 1250 nM.

What follows are binders tested against T1, human GIP receptor (human) (assay: cell-based or functional assay).
Binder B1 has a Relative cAMP EC50, nM (0.1% casein) of 0.227 nM and a cAMP Rel EC50, nM (1% HSA) of 29.7 nM.
B2 gave a Relative cAMP EC50, nM (0.1% casein) of 0.302 nM and a cAMP Rel EC50, nM (1% HSA) of 59 nM.
For B3, the Relative cAMP EC50 was 0.221 nM and the cAMP Rel EC50, nM (in the presence of 1% HSA) was 32.9 nM.
Binder B4 has a Relative cAMP EC50, nM (0.1% casein) of 0.177 nM and a cAMP Rel EC50, nM (1% HSA) of 18.9 nM.
In the case of B5, the Relative cAMP EC50, nM (0.1% casein) is reported as 0.101 nM and the cAMP Rel EC50, nM (1% HSA) is reported as 24.7 nM.
For B6, the Relative cAMP EC50 was 0.269 nM and the cAMP Rel EC50, nM (in the presence of 1% HSA) was 23.7 nM.
Binder B7 has a Relative cAMP EC50, nM (0.1% casein) of 0.233 nM and a cAMP Rel EC50, nM (1% HSA) of 31.9 nM.
B8 was tested, and the Relative cAMP EC50, nM (0.1% casein) was 0.0956 nM and the cAMP Rel EC50, nM (1% HSA) was 18.6 nM.
